Reference: US11459578B2, “Carbon fixation systems in plants and algae” (NMC, INC., priority 2014, dated 2022)
Entries after “also recorded” stand apart in the source; their conditions may differ.

Legend:
Format in all cases: in vivo
Arabidopsis = test: Growth phenotypes of transgenic Arabidopsis
From the text: (§1) Previously, reconstitution of a functional inorganic CCM in C3 plants to suppress photorespiration and enhance photosynthesis was proposed. In WO 2012/125737, it was hypothesized that expression of a minimum of three algal CCM proteins would be sufficient to elevate internal plastid CO2 concentrations high enough to suppress photorespiration. These three algal CCM genes included the Chlamydomonas plasma membrane-localized and ATP-dependent bicarbonate transporter, HLA3; the chloroplast envelope localized bicarbonate anion transporter, LCIA; and a chloroplast stromal-localized carbonic anhydrase (HCA-II) to accelerate conversion of bicarbonate into CO2. […] To test this hypothesis, we generated multiple independent transgenic Arabidopsis and Camelina plants expressing each CCM gene as a single gene construct, as well as a stacked 3-gene construct. The expression of each gene was controlled by the light-regulated Cab1 gene promoter.
Finally, we also grew transgenics on ammonium with sucrose which would presumably provide additional ATP via respiration. We hypothesized that growth on nitrate or ammonium with sucrose would provide additional ATP that could potentially drive HLA3 activity.

Camelina [1] = test: Growth phenotypes and seed recovery of transgenic Camelina
From the text: as §1

Camelina [2] = test: CO2-dependent photosynthetic rates of transgenic Camelina
From the text: FIGS. 5A-5C. Growth phenotypes of WT and LCIA transgenic (T1) Arabidopsis plants four weeks after germination. (B) Four-week-old WT (left 4 plants) and independent transgenic Camelina (right 4 plants) expressing LCIA. (C) CO2-dependent photosynthetic rates of WT and LCIA transgenic Camelina.
We propose that the substantially greater carbon sink-strength of Camelina relative to Arabidopsis accounts for the enhanced growth phenotype observed in Camelina LCIA plants. In support of this hypothesis, we observed that Camelina LCIA transgenics had higher CO2-dependent rates of photosynthesis and lower CO2 compensation points (40 vs. 53 ppm CO2) than WT plants indicative of facilitated inorganic carbon uptake by LCIA (FIG. 5C).

B1: LCIA: chloroplast envelope localized bicarbonate anion transporter, expressed in transgenic plants (protein, listed as Chlamydomonas reinhardtii)
chain: MQTTMTRPCLAQPVLRSRVLRSPMRVVAASAPTAVTTVVTSNGNGNGHFQAATTPVPPTPAPVAVSAPVRAVSVLTPPQVYENAINVGAYKAGLTPLATFVQGIQAGAYIAFGAFLAISVGGNIPGVAAANPGLAKLLFALVFPVGLSMVTNCGAELFTGNTMMLTCALIEKKATWGQLLKNWSVSYFGNFVGSIAMVAAVVATGCLTTNTLPVQMATLKANLGFTEVLSRSILCNWLVCCAVWSASAATSLPGRILALWPCITAFVAIGLEHSVANMFVIPLGMMLGAEVTWSQFFFNNLIPVTLGNTIAGVLMMAIAYSISFGSLGKSAKPATA
Arabidopsis
  growth phenotype relative to WT: substantially impaired in growth; also recorded: severely depressed growth phenotypes
Camelina [1]
  growth phenotype / viability relative to WT: grew better than WT; also recorded: increased growth rates
Camelina [2]
  CO2-dependent photosynthetic rates relative to WT: higher CO2-dependent photosynthetic rates
  CO2 compensation point: 40 ppm CO2
  CO2 compensation points relative to WT: reduced CO2 compensation points
Camelina [2]; ambient CO2 concentrations
  higher photosynthetic rates than WT: up to 25%
